Target: human CRF1 receptor (human) (UniProt P34998)
Assay: cell-based or functional assay

Sequence of human CRF1 receptor (human) (P34998 24-415): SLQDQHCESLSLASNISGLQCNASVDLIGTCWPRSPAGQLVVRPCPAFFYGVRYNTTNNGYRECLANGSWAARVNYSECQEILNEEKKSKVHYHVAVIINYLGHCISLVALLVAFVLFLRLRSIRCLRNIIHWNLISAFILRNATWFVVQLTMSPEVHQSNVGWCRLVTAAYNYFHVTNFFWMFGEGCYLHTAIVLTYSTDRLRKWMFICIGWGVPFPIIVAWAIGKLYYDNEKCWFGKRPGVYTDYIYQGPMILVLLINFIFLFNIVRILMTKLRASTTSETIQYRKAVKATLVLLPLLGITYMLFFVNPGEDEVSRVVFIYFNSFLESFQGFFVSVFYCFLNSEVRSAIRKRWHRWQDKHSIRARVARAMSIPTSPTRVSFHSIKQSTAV

FLIPR Ca^2+ response EC50, CHEM-1 cells: 12 nM
FLIPR EC50, CRF1/CHEM-1 cells: 10 nM
cAMP response EC50, CHEM-1 cells: 4.9 nM
cAMP response EC50, CHO cells: 8.4 nM
Substance: sauvagine (from UniProt P01144 1-40) (peptide)

— patent US20060141569A1, “Compositions and methods for the assay of G-protein coupled receptors and their ligands” (priority 2004, published 2006)
